Among the data in patent publication US20130225493A1 are EC50 and EC50 scores of FGF ligands in cell proliferation of FDCPR3 values, retold here.

In test [1] the target is FGFR3 extracellular domain, immobilized (R3-Fc) (UniProt P22607). As to the kind of experiment: functional ELISA on immobilized FGFR. (An ELISA detects its analyte on a solid surface through an enzyme-linked reagent.)
The target in test [2] is FGFR2 extracellular domain, immobilized (R2-Fc) (UniProt P21802). As to the kind of experiment: functional ELISA on immobilized FGFR.
Test [3] has as its target FGFR1 extracellular domain, immobilized (R1-Fc) (UniProt P11362). Briefly: functional ELISA on immobilized FGFR.
For test [4], the target named is FGFR3 extracellular domain, immobilized (R3-Fc) (UniProt P22607). Briefly: ELISA: biotinylated ligand on immobilized FGFR-Fc, HRP-streptavidin.
The target of test [5] is FGFR2 extracellular domain, immobilized (R2-Fc) (UniProt P21802). The test is described as above.
The target in test [6] is FGFR1 extracellular domain, immobilized (R1-Fc) (UniProt P11362). Described as above.
Test [7] addresses FGFR3-IIIc stably expressed on FDCP cells (UniProt P22607). As to the kind of experiment: cell-based or functional assay.

Sequence of FGF-18^Δ31 (O76093 other isoform, or with tags, fused parts or gaps mutant limits assumed): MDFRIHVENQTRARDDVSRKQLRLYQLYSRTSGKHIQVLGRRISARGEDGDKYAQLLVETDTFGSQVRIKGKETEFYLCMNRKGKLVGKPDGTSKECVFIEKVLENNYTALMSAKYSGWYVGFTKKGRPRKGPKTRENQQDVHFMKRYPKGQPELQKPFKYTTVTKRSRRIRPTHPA
Sequence of FGF-18^Δ51 (O76093 other isoform, or with tags, fused parts or gaps mutant limits assumed): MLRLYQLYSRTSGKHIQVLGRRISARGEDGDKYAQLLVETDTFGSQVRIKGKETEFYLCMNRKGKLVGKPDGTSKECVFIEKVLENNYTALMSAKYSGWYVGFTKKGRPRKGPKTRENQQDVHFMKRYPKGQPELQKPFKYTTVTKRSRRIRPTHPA
Sequence of FGF-18 (recombinant wild type, mature form without the signal peptide) (O76093 other isoform, or with tags, fused parts or gaps): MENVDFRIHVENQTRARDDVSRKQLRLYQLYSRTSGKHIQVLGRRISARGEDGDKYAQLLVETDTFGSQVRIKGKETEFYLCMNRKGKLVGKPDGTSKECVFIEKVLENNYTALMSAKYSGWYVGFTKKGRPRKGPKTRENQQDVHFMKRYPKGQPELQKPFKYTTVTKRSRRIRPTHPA
Sequence of FGF-18^Δ37 (O76093 other isoform, or with tags, fused parts or gaps mutant limits assumed): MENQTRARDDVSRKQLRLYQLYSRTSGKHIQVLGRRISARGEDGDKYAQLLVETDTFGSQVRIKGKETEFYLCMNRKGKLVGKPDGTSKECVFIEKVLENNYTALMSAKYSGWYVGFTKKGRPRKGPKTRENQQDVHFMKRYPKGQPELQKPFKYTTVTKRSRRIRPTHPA
Sequence of FGF-18^Δ45 (O76093 other isoform, or with tags, fused parts or gaps mutant limits assumed): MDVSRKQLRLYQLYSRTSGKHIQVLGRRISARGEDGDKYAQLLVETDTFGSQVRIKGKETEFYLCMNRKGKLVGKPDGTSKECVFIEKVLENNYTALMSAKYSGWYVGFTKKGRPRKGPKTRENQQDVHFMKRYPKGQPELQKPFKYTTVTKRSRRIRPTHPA
Sequence of FGFR3-IIIc stably expressed on FDCP cells (P22607 23-806): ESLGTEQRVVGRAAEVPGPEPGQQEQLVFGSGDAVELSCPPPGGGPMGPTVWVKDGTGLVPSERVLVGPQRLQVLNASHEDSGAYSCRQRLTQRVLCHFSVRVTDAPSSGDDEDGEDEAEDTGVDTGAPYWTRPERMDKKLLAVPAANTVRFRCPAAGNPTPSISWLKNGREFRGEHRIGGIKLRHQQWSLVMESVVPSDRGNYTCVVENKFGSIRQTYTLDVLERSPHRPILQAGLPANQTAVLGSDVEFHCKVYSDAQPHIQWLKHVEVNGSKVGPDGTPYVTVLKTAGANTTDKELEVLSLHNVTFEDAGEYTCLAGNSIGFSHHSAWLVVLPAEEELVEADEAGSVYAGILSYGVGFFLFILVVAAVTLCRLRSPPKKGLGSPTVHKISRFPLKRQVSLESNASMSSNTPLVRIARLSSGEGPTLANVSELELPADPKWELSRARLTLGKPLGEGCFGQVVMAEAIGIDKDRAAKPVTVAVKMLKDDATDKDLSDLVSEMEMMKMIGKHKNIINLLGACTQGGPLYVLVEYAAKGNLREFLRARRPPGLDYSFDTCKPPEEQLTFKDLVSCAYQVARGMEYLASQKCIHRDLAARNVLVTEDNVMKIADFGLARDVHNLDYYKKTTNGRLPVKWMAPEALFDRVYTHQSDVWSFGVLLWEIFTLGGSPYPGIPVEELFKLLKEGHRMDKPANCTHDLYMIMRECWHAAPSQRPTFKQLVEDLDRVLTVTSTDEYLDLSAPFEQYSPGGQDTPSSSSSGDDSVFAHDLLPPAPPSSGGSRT
Sequence of FGF-18^Δ33 (O76093 other isoform, or with tags, fused parts or gaps mutant limits assumed): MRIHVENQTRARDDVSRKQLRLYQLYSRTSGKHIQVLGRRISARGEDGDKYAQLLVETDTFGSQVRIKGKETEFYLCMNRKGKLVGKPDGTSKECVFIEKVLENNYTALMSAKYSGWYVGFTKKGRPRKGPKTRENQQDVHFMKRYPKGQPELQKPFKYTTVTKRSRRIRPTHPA

What is called EC50 is the concentration at which the effect is half-maximal. As for “FGF-18^Δ31 (from UniProt O76093 32-207) (ligand)”, the figures for the EC50 in test [1], in test [2] and in test [3] were 8.55 ng/mL, 11.2 ng/mL and 24.4 ng/mL, respectively.

The substance “FGF-18^Δ33 (from UniProt O76093 34-207) (ligand)” came in with an EC50 in test [1] of 8.27 ng/mL.

Regarding “FGF-18^Δ51 (from UniProt O76093 52-207) (ligand)”, the EC50 in test [1] turned out to be 9.99 ng/mL; in test [2] it was 43.5 ng/mL; in test [3] it was 41.9 ng/mL; in test [4], 10.2 ng/mL.

Consider “FGF-18^Δ45 (from UniProt O76093 46-207) (ligand)”, for which, in test [4], the EC50 is 9.16 ng/mL.

Turning to “FGF-18 (recombinant wild type, mature form without the signal peptide) (from UniProt O76093 29-207) (ligand)”, the EC50 in test [1] was determined as 6.59 ng/mL; in test [2], 8.76 ng/mL; in test [3], 22.8 ng/mL; in test [4] it was 5.04 ng/mL; in test [5] it was 9.51 ng/mL; in test [6] it was 28.2 ng/mL.

Substance “FGF-2 wild type (from UniProt P09038 134-288) (ligand)” registered an EC50 scores of FGF ligands in cell proliferation of FDCPR3 in test [7] of 1.19 ng/mL.

Turning to “FGF-18^Δ37 (from UniProt O76093 38-207) (ligand)”, the EC50 in test [1] was determined as 9.75 ng/mL; in test [4] it was 5.94 ng/mL.
